Data set [1] addresses T1, Zur (ScZur) wild type (Streptomyces coelicolor) (UniProt Q9L2H5).
T1 sequence: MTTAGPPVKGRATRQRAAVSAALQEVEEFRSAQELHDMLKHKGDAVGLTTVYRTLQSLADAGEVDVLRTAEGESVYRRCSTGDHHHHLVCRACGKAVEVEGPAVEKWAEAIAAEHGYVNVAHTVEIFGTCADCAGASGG
The data set is described as follows: DNase I footprinting. To be noted: ITC: 20 mM HEPES pH 7.8, 150 mM NaCl, 0.5 mM TCEP, 25 C. EMSA: 20 mM Tris-HCl pH 7.8, 150 mM NaCl, 5 mM DTT, 0.1 mg/ml BSA, 5% glycerol, 0.1 ug poly(dI-dC) per ….

Data set [2] addresses T2, Zur H36A H36A (Streptomyces coelicolor) (UniProt Q9L2H5).
T2 sequence: T1 sequence with H36A
The data set is described as follows: DNase I footprinting. To be noted: ITC: 20 mM HEPES pH 7.8, 150 mM NaCl, 0.5 mM TCEP, 25 C. EMSA: 20 mM Tris-HCl pH 7.8, 150 mM NaCl, 5 mM DTT, 0.1 mg/ml BSA, 5% glycerol, 0.1 ug poly(dI-dC) per ….

Data set [3] addresses T3, Zur H36A (Streptomyces coelicolor, UniProt Q9L2H5 1-139, H36A).
T3 sequence: T1 sequence with H36A
The data set is described as follows: ITC; 4.0 eq Zn2+ per Zur dimer; N=2.0 dimers per DNA; K=3.3e5 M-1; ITC: 20 mM HEPES pH 7.8, 150 mM NaCl, 0.5 mM TCEP, 25 C. EMSA: 20 mM Tris-HCl pH 7.8, 150 mM NaCl, 5 mM DTT, 0.1 mg/ml BSA, 5% glycerol, 0.1 ug poly(dI-dC) per. As to conditions: protein: recombinant; chain copies: 2; label: 6-FAM in EMSA; blunt.

For data set [4], the target named is T4, Zur (ScZur) wild type (Streptomyces coelicolor, UniProt Q9L2H5 1-139).
T4 sequence: T1 sequence
The data set is described as follows: ITC; 4.0 eq Zn2+ per Zur dimer; N=2.1 dimers per DNA; K=8.7e5 M-1; ITC: 20 mM HEPES pH 7.8, 150 mM NaCl, 0.5 mM TCEP, 25 C. EMSA: 20 mM Tris-HCl pH 7.8, 150 mM NaCl, 5 mM DTT, 0.1 mg/ml BSA, 5% glycerol, 0.1 ug poly(dI-dC) per. To be noted: protein: recombinant; chain copies: 2; label: 6-FAM in EMSA; blunt.

The target in data set [5] is T4, Zur (ScZur) wild type. The data set is described as follows: EMSA; 400 nM Zur, 0-5 uM zinc; saturating state switched (hexamer); ITC: 20 mM HEPES pH 7.8, 150 mM NaCl, 0.5 mM TCEP, 25 C. EMSA: 20 mM Tris-HCl pH 7.8, 150 mM NaCl, 5 mM DTT, 0.1 mg/ml BSA, 5% glycerol, 0.1 ug poly(dI-dC) per. As to conditions: protein: recombinant; chain copies: 2; label: 6-FAM; blunt.

Data set [6] deals with T4, Zur (ScZur) wild type. The data set is described as follows: EMSA; 400 nM Zur, 0-5 uM zinc; saturating state switched (tetramer); ITC: 20 mM HEPES pH 7.8, 150 mM NaCl, 0.5 mM TCEP, 25 C. EMSA: 20 mM Tris-HCl pH 7.8, 150 mM NaCl, 5 mM DTT, 0.1 mg/ml BSA, 5% glycerol, 0.1 ug poly(dI-dC) per. As to conditions: protein: recombinant; chain copies: 2; label: 6-FAM; blunt.
Data set [7] addresses T4, Zur (ScZur) wild type. The data set is described as follows: ITC; 4.0 eq Zn2+ per Zur dimer; N=3.1 dimers per DNA; K=1.8e6 M-1; ITC: 20 mM HEPES pH 7.8, 150 mM NaCl, 0.5 mM TCEP, 25 C. EMSA: 20 mM Tris-HCl pH 7.8, 150 mM NaCl, 5 mM DTT, 0.1 mg/ml BSA, 5% glycerol, 0.1 ug poly(dI-dC) per. As to conditions: protein: recombinant; chain copies: 2; label: 6-FAM in EMSA; blunt.

The target in data set [8] is T3, Zur H36A. The data set is described as follows: ITC; 4.0 eq Zn2+ per Zur dimer; N=3.1 dimers per DNA; K=2.6e5 M-1; ITC: 20 mM HEPES pH 7.8, 150 mM NaCl, 0.5 mM TCEP, 25 C. EMSA: 20 mM Tris-HCl pH 7.8, 150 mM NaCl, 5 mM DTT, 0.1 mg/ml BSA, 5% glycerol, 0.1 ug poly(dI-dC) per. As to conditions: protein: recombinant; chain copies: 2; label: 6-FAM in EMSA; blunt.

Positions count from the first letter of the chain named.

Turning to “CTCCTCGTGTGTACCGGCGTCCGGCGACCCGGCGCCCGGATGCCAGTCAACTACGGGTAGGGGGTATCGGGCAACGCGGCACTGAACACCGTTGTCATGTGCCTTGACCTGCGGAAACGTTTCGCAGGTCAGAGTGTTGCGAGGATGCGGAGGGTGCGGCTTCCGCCGTCAGGGGGACCGGTCCGACGGGGCTCGTCCTGACCCTGTGCGAACAACGGCGGACACTGTGCGATGTCCGCGATGCCCGGTCTGGGGGCGCGGTTTGTC (double strand) [zitB promoter 267 bp footprinting probe]”, the binding entry is listed as “binds” in data set [1] and “binds more weakly” in data set [2].

B1: znuA 33 bp (zurbox site 1) (dsDNA)
DNA 1: TCCGCTTGTTGACAACGGTTTCCATATTTGTTG
DNA 2: CAACAAATATGGAAACCGTTGTCAACAAGCGGA
For B1, the Kd with Zur H36A [3] stood at 3000 ± 900 nM; with Zur (ScZur) wild type [4], 1200 ± 200 nM.

B2: znuA zurbox with zitB flanks (4 nt each) (dsDNA)
DNA 1: TCCGCCACATGACAACGGTTTCCAGTGCTGTTG
DNA 2: CAACAGCACTGGAAACCGTTGTCATGTGGCGGA
For the molecule B2, the binding result with Zur (ScZur) wild type [5] is recorded as “binds”.

B3: zitB zurbox with znuA flanks (4 nt each) (dsDNA)
DNA 1: CAAGGTTGTTGACAACGGTGTTCATATTCGCGT
DNA 2: ACGCGAATATGAACACCGTTGTCAACAACCTTG
For B3, the binding result in the data set with Zur (ScZur) wild type [6] is reported as “binds”.

B4: zitB 33 bp (dsDNA)
DNA 1: CAAGGCACATGACAACGGTGTTCAGTGCCGCGT
DNA 2: ACGCGGCACTGAACACCGTTGTCATGTGCCTTG
Turning to B4, the values for the Kd with Zur (ScZur) wild type [7] and with Zur H36A [8] were 600 ± 100 nM and 3900 ± 1000 nM, respectively.

The record behind these values is paper PMC11077047, “Activation of zinc uptake regulator by zinc binding to three regulatory sites”.
